From patent US20230417748A1
“And” between values parts separate entries of the source, which are not always exact repeats. Equal values may be shown once.

Molecular target: SARS-CoV-2 (2019-nCoV) Spike Protein (S1+S2 ECD, His tag) (Sino Biological, 40589-V08B1) (SARS-CoV-2), P0DTC2
Settings: remark: other sources report otherwise

B1: clone 5E9 (antibody, V domains shown)
VH: EVQLVESGGGLVQPGGSLRLSCAASGFTFTTYDMGWVRQAPGKGPEWVSLISSGGSNTWYDDSVKGRFTISRDNSKNTLYLQMNSLRAEDTAVYYCAKEKYPYSDCDYWGQGTLVTVSS
- O.D.: 0.892 O.D. and 0.904 O.D.

B2: clone 6D9 (antibody, V domains shown)
VH: EVQLVESGGGLVQPGGSLRLSCAASGFTFTDYDMGWVRQAPGKGPEWVSLISGDSGNTWYDDSVKGRFTISRDNSKNTLYLQMNSLRAEDTAVYYCAKYRGTTKDYWGQGTLVTVSS
- O.D.: 0.997 O.D. and 0.991 O.D.
